The values below come from article PMC10724205.

Assay [1] has as its target LacI-CFP-FOXO1 fusion protein with the C793S mutant FOXO1 domain. Put plainly: LacO array recruitment assay; U2OS cells with 50,000 Lac operon repeats on chromosome 1, transfected with CFP-LacI-FOXO1 fusion baits; endogenous p300 detected at the CFP dot by immunofluorescence after 48 h; dots counted for presence or absence of p300.
Assay [2] concerns the target LacI-CFP-FOXO1 fusion protein with the small C-terminal AD deleted. Described as above.
The target in a further assay is CLP1. Briefly: BioID (proximity biotinylation, streptavidin isolation, mass spectrometry). To be noted: HEK293T cells, transient transfection, biotin, 24 h; n = 3; read off a plot.
The next assay has as its target DNTTIP2. Described as above. To be noted: HEK293T cells, transient transfection, biotin, 24 h; n = 3; read off a plot.
For a further assay, the target named is MED6 (UniProt O75586). Described as above. The conditions noted are these: HEK293T cells, transient transfection, biotin, 24 h; n = 3; read off a plot.
In a further assay the target is TAF9 (UniProt Q16594). Described as above. To be noted: HEK293T cells, transient transfection, biotin, 24 h; n = 3; read off a plot.
A further assay concerns the target TCF4. The assay is described as above. To be noted: HEK293T cells, transient transfection, biotin, 24 h; n = 3; read off a plot.
The target of the next assay is YY1. The description is as above. The conditions noted are these: HEK293T cells, transient transfection, biotin, 24 h; n = 3; read off a plot.
A further assay deals with p300 (UniProt Q09472). Described as above. The conditions noted are these: HEK293T cells, transient transfection, biotin, 24 h; n = 3; read off a plot.
UniProt Q09472, sequence (Q09472 whole entry): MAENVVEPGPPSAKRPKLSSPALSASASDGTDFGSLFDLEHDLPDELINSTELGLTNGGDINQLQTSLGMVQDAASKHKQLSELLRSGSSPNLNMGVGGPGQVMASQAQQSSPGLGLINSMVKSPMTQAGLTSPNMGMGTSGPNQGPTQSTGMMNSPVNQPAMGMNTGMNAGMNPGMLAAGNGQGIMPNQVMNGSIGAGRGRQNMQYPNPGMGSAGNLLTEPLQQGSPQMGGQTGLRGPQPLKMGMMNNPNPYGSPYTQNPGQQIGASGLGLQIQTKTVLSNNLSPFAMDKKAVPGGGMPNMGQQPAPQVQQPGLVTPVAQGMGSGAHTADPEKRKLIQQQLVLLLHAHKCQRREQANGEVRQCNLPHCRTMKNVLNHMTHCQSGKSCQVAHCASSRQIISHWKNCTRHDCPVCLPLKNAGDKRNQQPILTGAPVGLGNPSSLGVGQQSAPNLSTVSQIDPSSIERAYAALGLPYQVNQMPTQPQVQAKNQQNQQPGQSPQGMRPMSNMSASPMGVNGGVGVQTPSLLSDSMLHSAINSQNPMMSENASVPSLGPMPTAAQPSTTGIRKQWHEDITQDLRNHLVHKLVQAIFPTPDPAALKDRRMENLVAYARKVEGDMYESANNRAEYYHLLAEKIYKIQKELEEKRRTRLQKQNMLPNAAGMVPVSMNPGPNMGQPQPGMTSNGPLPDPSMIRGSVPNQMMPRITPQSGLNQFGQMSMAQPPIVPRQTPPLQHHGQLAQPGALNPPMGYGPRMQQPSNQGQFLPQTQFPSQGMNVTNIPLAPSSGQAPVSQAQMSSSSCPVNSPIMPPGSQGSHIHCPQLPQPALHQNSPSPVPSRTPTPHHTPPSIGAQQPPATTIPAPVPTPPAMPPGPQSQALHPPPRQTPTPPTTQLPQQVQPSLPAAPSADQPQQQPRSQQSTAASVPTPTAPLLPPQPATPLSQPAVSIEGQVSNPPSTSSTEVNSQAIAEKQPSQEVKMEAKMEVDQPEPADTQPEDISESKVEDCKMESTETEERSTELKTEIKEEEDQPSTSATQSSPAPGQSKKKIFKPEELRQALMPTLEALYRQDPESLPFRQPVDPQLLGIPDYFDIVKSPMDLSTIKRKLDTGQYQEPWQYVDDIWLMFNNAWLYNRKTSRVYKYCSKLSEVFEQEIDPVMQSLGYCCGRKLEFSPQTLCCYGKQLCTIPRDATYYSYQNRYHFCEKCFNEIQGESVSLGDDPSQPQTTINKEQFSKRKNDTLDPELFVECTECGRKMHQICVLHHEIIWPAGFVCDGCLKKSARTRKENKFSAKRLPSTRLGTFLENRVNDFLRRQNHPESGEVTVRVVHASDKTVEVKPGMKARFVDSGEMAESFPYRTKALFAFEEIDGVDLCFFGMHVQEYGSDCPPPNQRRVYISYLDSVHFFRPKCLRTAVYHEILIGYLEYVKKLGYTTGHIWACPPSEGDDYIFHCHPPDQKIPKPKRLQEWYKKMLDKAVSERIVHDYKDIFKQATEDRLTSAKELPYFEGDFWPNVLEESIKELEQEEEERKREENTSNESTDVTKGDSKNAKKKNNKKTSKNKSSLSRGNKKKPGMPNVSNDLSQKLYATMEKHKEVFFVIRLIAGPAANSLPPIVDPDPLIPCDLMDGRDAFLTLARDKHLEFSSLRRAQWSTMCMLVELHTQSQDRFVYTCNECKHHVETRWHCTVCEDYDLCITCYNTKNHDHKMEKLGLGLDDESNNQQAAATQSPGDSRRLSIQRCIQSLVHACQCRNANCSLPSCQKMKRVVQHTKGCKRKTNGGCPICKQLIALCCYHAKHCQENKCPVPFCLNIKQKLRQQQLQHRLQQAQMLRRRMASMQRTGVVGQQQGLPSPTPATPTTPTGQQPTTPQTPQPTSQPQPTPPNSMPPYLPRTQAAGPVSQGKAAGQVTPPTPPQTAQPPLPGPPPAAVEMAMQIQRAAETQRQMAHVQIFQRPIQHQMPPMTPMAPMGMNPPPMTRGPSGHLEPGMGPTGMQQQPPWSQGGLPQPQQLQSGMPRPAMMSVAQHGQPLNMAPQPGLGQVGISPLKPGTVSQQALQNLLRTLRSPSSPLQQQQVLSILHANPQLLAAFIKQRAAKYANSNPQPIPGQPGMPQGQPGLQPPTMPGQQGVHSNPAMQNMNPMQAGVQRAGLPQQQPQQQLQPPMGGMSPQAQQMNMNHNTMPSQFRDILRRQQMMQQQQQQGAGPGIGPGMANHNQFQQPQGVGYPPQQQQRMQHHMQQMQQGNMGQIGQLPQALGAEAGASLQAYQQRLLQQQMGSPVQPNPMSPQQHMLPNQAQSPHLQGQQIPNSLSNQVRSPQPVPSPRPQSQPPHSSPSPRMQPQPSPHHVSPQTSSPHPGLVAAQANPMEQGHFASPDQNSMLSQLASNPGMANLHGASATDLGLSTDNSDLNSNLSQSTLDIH

UniProt O75586, sequence (O75586 whole entry): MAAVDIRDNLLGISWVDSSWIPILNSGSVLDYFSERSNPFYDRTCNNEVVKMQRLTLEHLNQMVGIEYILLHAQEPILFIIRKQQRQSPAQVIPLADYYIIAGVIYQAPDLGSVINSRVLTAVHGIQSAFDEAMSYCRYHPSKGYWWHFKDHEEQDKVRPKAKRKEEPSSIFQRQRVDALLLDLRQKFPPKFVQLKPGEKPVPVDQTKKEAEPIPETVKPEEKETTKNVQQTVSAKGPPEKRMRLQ
UniProt Q16594, sequence (Q16594 whole entry): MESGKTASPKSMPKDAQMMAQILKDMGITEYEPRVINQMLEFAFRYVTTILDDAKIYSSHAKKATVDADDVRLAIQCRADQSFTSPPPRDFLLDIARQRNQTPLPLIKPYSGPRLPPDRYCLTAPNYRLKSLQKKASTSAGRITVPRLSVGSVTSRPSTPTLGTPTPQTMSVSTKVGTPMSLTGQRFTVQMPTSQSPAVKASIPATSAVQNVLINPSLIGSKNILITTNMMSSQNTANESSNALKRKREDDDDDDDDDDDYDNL

In the case of “p300 (endogenous in U2OS cells) (from UniProt Q09472 1-2414) (natural protein)”, the loss of p300 recruitment against the wt FOXO1 in [1] was 30 percent. In addition, the reduction of p300 recruitment against the FOXO1 part of P3F in assay [2] was 90 percent.

Regarding “BirA-Flag/PAX3-FOXO1 fusion construct (wildtype P3F) C793S”, the other: Log2 (fold change) of total spectral counts with CLP1 turned out to be 2.2; in the assay with DNTTIP2, 2.5; in the assay with MED6 it was 1.2; with TAF9, 3.8; with TCF4 it was 1.4; with YY1, 2.4. Moreover, the other: Log2 (fold change) of total spectral counts with p300 came out at 0.7.
